Results as given in paper PMC10163058.

Legend:
[1] = target: paired immunoglobulin-like receptor B (PirB), expressed on CHO cells (mouse) (UniProt P97484)
[2] = target: paired immunoglobulin-like receptor B (PirB), expressed on CHO cells (mouse) (UniProt P97484); remark: listed apart in the source
[3] = target: His6-tagged recombinant PirB (Abcam #ab276923) (mouse) (UniProt P97484); assay: atomic force microscopy (single-molecule force spectroscopy); His6-PirB held on Ni2+-NTA gold-coated model surfaces; AFM tips functionalised with T3SA- virions or σ3 through a PEG linker; virus buffer; koff from Bell-Evans fit of dynamic force spectroscopy, kon from binding probability against contact time (pseudo-first-order), KD calculated from both

Substance	tyrosine phosphorylation of immunoprecipitated myc-tagged PirB in CHO cells after T3SA+ adsorption (immunoblot with pTyr-specific mAb cocktail) [1] [fold]	decrease in infection of primary murine cortical neurons (endogenous PirB) by T3SA+ (100 PFU/cell) after incubation with 5 μg/ml PirB-specific mAb 6C1, IFA [2] [%]	Kd [3] [nM]	koff [3] [s⁻¹]	kon [3] [M⁻¹ s⁻¹]
reovirus strain T3SA+ virions (from UniProt P03528 1-455; P07939 1-365) (complex)	> 3	50	–	–	–
reovirus strain T3SA- virions (from UniProt P03528 1-455; P07939 1-365) (complex)	–	–	1.94	0.2	1.03e+08
